Test results as given in PMC4838890, “Dynamic and flexible H3K9me3 bridging via HP1β dimerization establishes a plastic state of condensed chromatin” (Nature Communications, 2016).
Like-named read-outs stand apart in the source and are kept apart here.

Tests used:
H3K9me3 peptide = molecular target: T1, H3K9me3 peptide (Homo sapiens, UniProt P68431); assay: ITC, H3K9me3 peptide; assay type: binding; settings: for Kd / N (stoichiometry of interaction): ITC; for Kd: 10 mM triethanolamine pH 7.5, 0.1 mM EDTA, 25°C, read-out: Kd (apparent dissociation constant); for N (stoichiometry of interaction): pH 7.5, 25°C
T1 construct: C-terminally biotinylated histone H3 peptides (aa 1–20)
Procedure: (§1) ITC measurements were performed on a iTC200 calorimeter (Microcal, Malvern, UK) at 25°C in binding buffer (10 mM triethanolamine (pH 7.5), 20 or 150 mM NaCl, 0.1 mM EDTA). Reaction heats were recorded by sequences of 37 injections of 1.8 mM hHP1β, spaced at 120 s intervals, into 250 μl of 60 μM H3 peptides, nucleosomes or oligonucleosomal arrays under constant stirring at 1,000 r.p.m. (injection #1–10: 0.5 μl each; injection #11–32: 1 μl each; injection #33–37: 2 μl each). Heats of dilution, obtained by the titration of hHP1β into buffer, were substracted from raw data before analysis. Raw data were integrated, normalized and the apparent heat change (Δq) of the reaction was plotted against the molecular ratio using the Origin software. For the determination of apparent enthalpy changes (ΔHapp), the molar association constant (KA), and the stoichiometry (n) of the interaction, non-linear least-square fitting of the Δq values was performed by the Origin software using a binding model of one set of identical binding sites.
(§2) Figure S4 Hiragami-Hamada et al. […]
(§3) Supplementary Figure 4: Quantitative analysis of interaction of hHP1β with H3K9me3-peptides and
(§4) (a) ITC measurements of H3K9me3-peptide/hHP1β WT interaction at 20 mM NaCl (left) and 150 mM
(§5) NaCl (right). Upper panels, raw data of heat release upon stepwise injection of recombinant protein into
(§6) solution of peptide; lower panels, plots of integrated heats of protein injections vs. molar ratio of hHP1β
WT per peptide calculated by MicroCal software. Injections #1-10: 0.5 µl; injections #11-32: 1 µ l; […]

H3KC9me3 oligonucleosome = assay: ITC, H3KC9me3 oligonucleosome; assay type: binding, Xenopus laevis; settings: for Kd: read-out: Kd (apparent dissociation constant)
Source text: Mononucleosomes were reconstituted on a 187 bp DNA fragment containing the ‘601' sequence flanked on each site by a linker of 20 bp[55]. Oligonucleosomes were reconstituted on a 12 × 200 bp × 601 template. Plasmids carrying the respective inserts were purified using a Giga kit (Qiagen, Hilden, Germany). Templates for reconstitution were released from plasmids by restriction digest with BsoBI for mononucleosomes and a mix of DdeI, BfuCI, HaeII and EcoRI for oligonucleosomes. To separate vector backbone from DNA used for chromatin assembly stepwise precipitation with polyethylene glycol (PEG) 6000/0.5 M NaCl was carried out (final PEG concentration 2–9% and 20% (w/v)). DNA pellets were washed with 70% (v/v) ethanol and dissolved in water. Double stranded, short, biotinylated DNA linkers were ligated to the DNA template before chromatin reconstitution.
as §1, §2, §3, §4, §5, §6
WT per peptide calculated by MicroCal software. Injections #1-10: 0.5 µl; injections #11-32: 1 µ l;
(b) ITC measurements as in (a) but with H3K C9me3- oligonucleosomal arrays. […]

H3K9me3 oligonucleosomes = assay: Scanning force microscopy; assay type: biochemical, Xenopus laevis; settings: 50 mM NaCl
Procedure: Nucleosomal arrays and recombinant hHP1β were dialyzed against SFM buffer (5 mM triethanolamine (pH7.5), 50 mM NaCl, 0.1 mM EDTA). The recombinant proteins at different concentrations (between 0 and 5 μM) were preincubated with oligonucleosomes at a DNA concentration of 50 ng ml^−1 in SFM buffer for 1 h at 4°C, and the samples were fixed with 0.05% (v/v) fresh glutaraldehyde (Electron Microscopy Sciences, PA, USA) at 4°C overnight. Fixed samples were extensively dialyzed against TEAE buffer (5 mM triethanolamine (pH 7.5), 0.1 mM EDTA). 10 μl of dialyzed sample was deposited on ca. 1 cm^2 of freshly cleaved mica (Plano). After 5 min incubation at RT, the mica was washed with 200 μl of water (high-performance liquid chromatography grade) and air-dried. Images were recorded in air on a Nanoscope V Multi Mode scanning force microscope (Veeco, NY, USA) using an ‘E'-scanner with maximum scan size of 15 × 15 μm and silicon-etched probe tips with a typical spring constant of 40 N m^−1 and a typical resonance frequency of 325 kHz (NSC15, MikroMasch) in tapping mode. […]

[1] = test system: chromatin reporter array in U2OS cells; assay: Chromatin reporter array (LacO) unfolding; assay type: cell-based; settings: doxycycline 1 μg ml^−1 24 h, LacI-tethered, n>300
Source text: Figure 7 hHP1β dimerization is required for maintaining condensed cellular chromatin states. (a) Schematic diagram of the transgene system used to test chromatin compaction effects of hHP1β. A tandem array of the construct has been integrated into the genome of U2OS mammalian cells. Dox, doxycycline; rtTA, reverse tetracycline-controlled TET-VP16 transactivator, whose binding to tetracycline responsive elements (RE) is activated by doxycycline. (b) Together with mCherry-LacI, the indicated fusion proteins were transiently expressed in U2OS cells containing the chromatin reporter array as described in a. Representative confocal images in the absence or after induction of transcription from the array with doxycycline (Dox) are shown. DNA was stained with DAPI. Inlets show enlarged chromatin reporter array; scale bar, 10 μm. (c) Quantification of the results shown in b together with results of similar experiments using additional hHP1β mutant proteins. Averages of three independent experiments are plotted; error bars represent s.d.; n>300 for each condition; asterisks represent P<0.05 according to Student's t-test.
U2OS 2-6-3 CLTon cells[38] were kindly provided by Dr Supriya Prasanth (University of Illinois, IL, USA) and maintained in DMEM (high glucose+GlutaMax) (GIBCO/Invitrogen, Darmstadt, Germany) supplemented with 10% (v/v) TET system approved fetal bovine serum (Clontech, Saint-Germain-en-Laye, France), 50 μg ml^−1 hygromycin (Carl Roth, Karlsruhe, Germany) and 200 μg ml^−1 G418 (Clontech, Saint-Germain-en-Laye, France). For fluorescence microscopy, cells were grown on coverslips in a six-well plate without antibiotics. 500 ng plasmid DNA was transfected using Lipofectamine LTX and Plus reagent (Invitrogen, Darmstadt, Germany). 20 h post transfection, cells were treated with 1 μg ml^−1 doxycycline for 24 h for induction of rtTA expression. Cells were washed twice with PBS and fixed with 3.7% (v/v) formaldehyde/PBS for 10 min at RT. […] P values (according to Student's t-test) were calculated using GraphPad QuickCals (GraphPad, CA, USA).

Substance | Kd (H3K9me3 peptide; 20 mM NaCl) | N (stoichiometry of interaction) (H3K9me3 peptide; 20 mM NaCl) | Kd (H3K9me3 peptide; 150 mM NaCl) | N (stoichiometry of interaction) (H3K9me3 peptide; 150 mM NaCl) | Kd (apparent dissociation constant) (H3KC9me3 oligonucleosome; 20 mM NaCl, pH 7.5, 25°C, NB, not binding) | Kd (H3KC9me3 oligonucleosome; 150 mM NaCl, pH 7.5, 25°C) | structures observed by SFM (H3K9me3 oligonucleosomes; 0.5 μM protein) | structures observed by SFM (H3K9me3 oligonucleosomes; 5 μM protein) | frequency of condensed chromatin fibres and large clusters, H3K9me0 (H3K9me3 oligonucleosomes; H3K9me0 chromatin, n>50) | unfolding of the array on activation [1] | binding to H3K9me3 peptide relative to WT (H3K9me3 peptide; Table 1) | reduced interaction with H3KC9me3 oligonucleosomes compared with hHP1β WT (H3KC9me3 oligonucleosome; 150 mM NaCl) | frequency of condensed chromatin fibres and large clusters (H3K9me3 oligonucleosomes; H3K9me3 chromatin, n>50)
hHP1β WT: recombinant human heterochromatin protein 1β (GenBank NM_001127228), 185 aa | 1.4 ± 0.6 µM | 0.9±0.0 | 3.3 ± 0.2 µM | 1.0±0.0 | could not detect any binding | 11 ± 2 µM | individual but highly condensed H3K9me3 chromatin species | larger clusters that must contain multiple oligonucleosomes were visible | much lower for H3K9me0 chromatin with hHP1β WT | largely reduced | – | – | –
hHP1β I161A: CSD point mutant of hHP1β incapable of dimerization | 1.1 ± 0.5 µM | 1.0±0.1 | 3.4 ± 0.2 µM | 0.9±0.0 | – | 132 ± 24 µM | – | – | – | largely reduced by tethering of LacI-YFP-hHP1β WT but not the dimerization deficient I161A mutant | bound an H3K9me3-peptide as efficiently as hHP1β wild type | 12 fold | much lower
